Reference: patent US12527847B1, “Compositions and methods for reducing blood ethanol concentration through alcohol dehydrogenase and acetaldehyde scavengers” (Goa Therapeutics Corporation, priority 2025, dated 2026)

Assays:
HepG2 Liver Cells [1] = assay: HepG2 ROS under EtOH exposure (DCFH-DA assay); assay type: cell-based; conditions: HepG2, 100 mM EtOH for 24 hours
Experimental: (§1) Cells were exposed to 100 mM EtOH for 24 hours. Group 1 (Control): EtOH only; Group 2: EtOH+ADH; Group 3: EtOH+AcH scavenger-containing composition; and Group 4 (Combined): EtOH+ADH+AcH scavenger-containing composition.
(§2) Cell viability was detected by MTT assay (absorbance at 570 nm). ROS (Reactive Oxygen Species) was detected by DCFH-DA assay (fluorescence at 488 nm).

[2] = In vitro reduction of EtOH by ADH and AcH scavengers (NAD/NADH-based enzymatic assay, 340 nm); assay type: biochemical; conditions: 200 U ADH, 455 mg scavenger mixture, pH 7.4, 37° C., 30 minutes
Experimental: (§3) An in vitro study was conducted to evaluate the effect of a combined formulation of ADH and AcH scavengers on the reduction of EtOH and AcH concentrations. The study was designed to assess the enzymatic conversion of EtOH to AcH by ADH and the subsequent removal of AcH by scavengers. The experiment was performed using enzyme preparation from yeast (Saccharomyces cerevisiae).
(§4) The following materials and reagents were used: EtOH 99.9% pure, analytical grade and ADH purified from Saccharomyces cerevisiae (500 U/mg protein) (SEQ ID NO: 1, see Table 1). AcH scavenger-containing composition (total 455 mg): Thiamine hydrochloride (Vitamin B1): 100 mg; Glutathione (GSH): 15 mg; NAC (N-Acetyl-Cysteine) OR L-Cysteine: 200 mg; α-Lipoic acid: 40 mg; Pyridoxine hydrochloride (Vitamin B6): 100 mg and buffer Solution: 100 mM sodium phosphate buffer, pH 7.4.
(§5) The experiment was conducted in triplicate with appropriate controls to ensure reproducibility. […]
(§6) EtOH concentration was measured using a NAD/NADH-based enzymatic assay with a spectrophotometer at 340 nm. AcH concentration was measured using a modified Hantzsch reaction assay, which detects AcH at 412 nm.

HepG2 Liver Cells [3] = assay: HepG2 cell viability under EtOH exposure (MTT assay); assay type: cell-based; conditions: HepG2, 100 mM EtOH for 24 hours
Experimental: as §1, §2

[4] = In vivo blood EtOH concentration in rodents after oral EtOH; design: species or system Sprague-Dawley rats; conditions: rat blood, 2 g/kg EtOH oral, ADH 600 U/kg IP
Experimental: The study was performed to evaluate the efficacy of a combined formulation of ADH and AcH scavengers in reducing blood EtOH and AcH concentrations in an in vivo rodent model.
12 male Sprague-Dawley rats (200 to 250 g), housed under standard conditions (12-hour light/dark cycle, 22±2° C.) were administered with 2 g/kg EtOH orally via gavage.
Groups (n=3): Group 1 (Control): EtOH only (no ADH or scavengers). Group 2: EtOH+ADH (600 U/kg, intraperitoneally). Group 3: EtOH+AcH scavenger-containing composition. Group 4 (Combined): EtOH+ADH (600 U/kg, IP)+AcH scavenger-containing composition.
Blood samples were collected from the tail vein at 0, 15, 30, 60, and 120 minutes post-EtOH administration. EtOH concentration was measured using a NAD/NADH-based enzymatic assay.

ADH = assay: Stability and degradation profile of ADH in the presence of AcH scavengers over time; assay type: physicochemical, Saccharomyces cerevisiae; conditions: 37° C., gentle shaking
Experimental: Conditions: 37° C. for up to 60 min with gentle shaking (100 rpm), ADH activity assessed via NADH production (340 nm). AcH scavenger-containing composition (total 455 mg): Thiamine hydrochloride (Vitamin B1): 100 mg; Glutathione (GSH): 15 mg; NAC (N-Acetyl-Cysteine) OR L-Cysteine: 200 mg; α-Lipoic acid: 40 mg; Pyridoxine hydrochloride (Vitamin B6): 100 mg and buffer Solution: 100 mM sodium phosphate buffer, pH 7.4.

[5] = In vitro AcH concentration after ADH and AcH scavengers (modified Hantzsch reaction assay, 412 nm); assay type: biochemical; conditions: 100 mM EtOH start, 200 U ADH, 455 mg scavenger mixture, pH 7.4, 37° C., 30 minutes
Experimental: as §3, §4, §5, §6

[6] = system: ADH purified from Saccharomyces cerevisiae; assay: Enzyme kinetics of ADH with AcH scavengers (Michaelis-Menten, NADH production at 340 nm); assay type: biochemical; conditions: pH 7.4, 37° C., 5 min incubation
Experimental: ADH purified from Saccharomyces cerevisiae (500 U/mg protein) was used. EtOH Concentrations: 5, 10, 20, 50, 100, 200 mM. Reaction Volume: 1 mL with 100 mM sodium phosphate buffer (pH 7.4). 37° C., 5 min incubation. NADH production measured at 340 nm using a spectrophotometer. Two groups: a) control ADH+EtOH; and b) ADH+EtOH+AcH scavenger mixture.

B1: ADH: ADH purified from Saccharomyces cerevisiae (500 U/mg protein), SEQ ID NO: 1 (protein, listed as Saccharomyces cerevisiae)
chain: MSTAVAVLTSNADTDIFAKPVAGVDGSHVIDAAAVFGLGKETVVDALKDYKTGATTPAVAQKLGVEGAKALVGVPQKVESNDFFVAKAKDAGTEVIVGGMGGVGLSAIGASLKPGYELDKAKIEVASKLAAGAKVTVITPQCGHEVIVGVPPDSQNLSMRIAQLGGKSPFTKEKDLNYFAVEKAKELGATGSKIINLIMGKVMPEGQKIHLGHEIVGDLGVVTKDAASGKLPIISIGHEAVKNAVKVLENAELEGLTKEGAKVTVVGNPQIYSDDHVAVAGTSLSTLNKLLDAIKKADTSKPIQEVLSDKAKEVGIEEGLMTTVHAITGAAGAASALPFGVTAAL
With B1 the “ROS (% of control)” value (HepG2 Liver Cells [1]; DCFH-DA, control = EtOH only) was 85.6 % of control, the “ROS Impact (in words)” value (HepG2 Liver Cells [1]; results interpretation) was “Moderate ROS” and the “EtOH Final” value ([2]; 100 mM EtOH start) was 85.8 mM. The “EtOH Reduction (%)” value ([2]; 100 mM EtOH, 1 mL) was 14.2%, the “Cell viability (%)” value (HepG2 Liver Cells [3]; MTT) was 67.1% and the “Overall Impact on Viability (in words)” value (HepG2 Liver Cells [3]; results interpretation) was “Viability increases”. For the same molecule, the “EtOH concentration (% of control)” value ([4]; 0 min) was 95 % of control, the “EtOH concentration (% of control)” value ([4]; 15 min) was 85.2 % of control and the “EtOH concentration (% of control)” value ([4]; 30 min) was 75.8 % of control. For the same molecule, the “EtOH concentration (% of control)” value ([4]; 60 min) was 68 % of control, the “EtOH concentration (% of control)” value ([4]; 120 min) was 44.8 % of control and the “ADH activity (% of t = 0)” value (ADH; 30 min) was 87 % of t = 0. The “ADH activity (% of t = 0)” value (ADH; 60 min) was 62 % of t = 0, the “AcH Final” value [5] was 235 µM and the Vmax ([6]; EtOH 5-200 mM) was 105.2 µmol/min. It also gave a kcat ([6]; EtOH 5-200 mM) of 105.2 and a Km ([6]; substrate EtOH 5-200 mM) of 32.5 mM.
